Results taken from publication PMC4739769, “Transmembrane chemokines act as receptors in a novel mechanism termed inverse signaling” (eLife, 2016).

B1: soluble CXCL16 (recombinant human chemokine) (ligand)
chain: NEGSVTGSCYCGKRISSDSPPSVQFMNRLRKHLRAYHRCLYYTRFQLLSWSVCGGNKDPWVQELMSCLDLKECGHAYSGIVAHQKHLLP
modifications: Cy3 (monoreactive NHS ester) for light microscopy; biotin (One-step antibody biotinylation kit) for flow cytometry; adsorbed to 5 nm gold particles for electron microscopy; no label named for cross-linking and stimulation

Experiments:
[1] = target: transmembrane CX3CL1, expressed in LOX melanoma cells (human) (UniProt P78423); experiment: cross-linking; isolated membranes of tm-chemokine overexpressing LOX cells (1.5 mg membrane protein, 0.2 M triethanolamine-hydrochloride pH 8.0) with 2 nM recombinant s-chemokine over night at 4°C; 1% paraformaldehyde 1 hr at room temperature; SDS-PAGE and Western blot
[2] = target: T1, transmembrane CXCL16 with a hemagglutinin tag, expressed in LOX melanoma cells (human, UniProt Q9H2A7 30-254); experiment: as above; conditions: one partner purified
T1 construct: CXCL16, transmembrane form; expression vector CXCL16-HA in pcDNA3.1 as described in Abel et al., 2004; called full-length tm-chemokine in the results; also called tm-CXCL16; CXCL16-HA; source: LOX melanoma cells, transfected (pcDNA3.1), on cells or in isolated membranes
T1 sequence (looked up): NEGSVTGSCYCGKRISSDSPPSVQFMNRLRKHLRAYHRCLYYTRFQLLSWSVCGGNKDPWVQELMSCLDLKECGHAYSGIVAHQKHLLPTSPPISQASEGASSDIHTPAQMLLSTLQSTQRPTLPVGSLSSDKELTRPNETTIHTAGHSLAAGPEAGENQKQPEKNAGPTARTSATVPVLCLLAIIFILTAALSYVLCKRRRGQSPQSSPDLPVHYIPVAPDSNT

Sequence of transmembrane CX3CL1, expressed in LOX melanoma cells (human) (P78423 25-397): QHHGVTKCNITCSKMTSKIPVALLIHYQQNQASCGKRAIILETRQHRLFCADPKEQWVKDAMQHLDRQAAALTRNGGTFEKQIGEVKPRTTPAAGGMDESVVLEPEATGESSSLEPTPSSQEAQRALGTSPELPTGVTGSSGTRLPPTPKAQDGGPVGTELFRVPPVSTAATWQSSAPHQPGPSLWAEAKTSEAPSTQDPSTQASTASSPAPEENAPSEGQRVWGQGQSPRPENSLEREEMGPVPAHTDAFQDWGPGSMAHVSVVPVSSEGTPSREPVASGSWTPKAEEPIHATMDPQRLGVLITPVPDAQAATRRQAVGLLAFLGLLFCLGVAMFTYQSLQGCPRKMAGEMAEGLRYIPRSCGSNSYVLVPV

| Molecule | stoichiometry N [1] | stoichiometry N [2] |
| --- | --- | --- |
| soluble CX3CL1 (recombinant human chemokine) (ligand) | 1 to 2 | – |
| B1 | – | 1 to 2 |
